Target: ubp18_human USP18 (UniProt Q9UMW8)
Sequence (Q9UMW8 whole entry): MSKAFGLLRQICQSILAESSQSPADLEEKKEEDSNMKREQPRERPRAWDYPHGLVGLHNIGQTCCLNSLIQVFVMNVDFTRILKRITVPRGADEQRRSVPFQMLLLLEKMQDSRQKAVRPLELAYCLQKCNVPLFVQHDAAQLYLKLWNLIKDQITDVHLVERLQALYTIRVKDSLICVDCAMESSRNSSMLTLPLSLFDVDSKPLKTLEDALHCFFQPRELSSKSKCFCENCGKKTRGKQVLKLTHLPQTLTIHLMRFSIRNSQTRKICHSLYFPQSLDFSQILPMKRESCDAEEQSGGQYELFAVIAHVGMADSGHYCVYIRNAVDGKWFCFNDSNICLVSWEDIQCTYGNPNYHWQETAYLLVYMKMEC

effect of a mutation on the interaction: decreasing interaction strength
Substance: Signal transducer and activator of transcription 2 (Homo sapiens), P52630 A219V

From IntAct's records for PubMed 36753016
